Measurements as given in US20140274782A1, “AFFINITY REAGENTS AND METHODS FOR DETECTION, PURIFICATION, AND PROTEOMIC ANALYSIS OF METHYLATED PROTEINS” (The Board of Trustees of the Leland Stanford Junior …, priority 2013, published 2014).
Each block holds one molecule with its values, some of them ahead of it.

Experiments:
G9a and GLP = target: T1, G9a and GLP (Homo sapiens, UniProt Q96KQ7+Q9H9B1); assay: Triple SILAC pull-down after UNC0638 treatment of 293T cells, DMSO/UNC0638 ratio of protein captured by 3×MBT; type: cell-based; set-up: endogenous in cells; host or cells: HEK 293T; details: for Relative to UNC0638 UNC Heavy: UNC0638 in heavy SILAC media; for Relative to UNC0638 UNC Light: UNC0638 in light SILAC media; for Relative to UNC0638 Average: average of UNC Light and UNC Heavy experiments; for Candidate G9a/GLP target: reduced association with 3xMBT after UNC0638 treatment;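 for all read-outs here: mass spectrometry (Q-Exactive) SILAC quantitation, DMSO/UNC0638 ratio computed after subtracting 3×MBTD355N mutant pull-down background, only proteins with at least twofold 3×MBT over mutant signal considered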
T1 sequence (Q96KQ7 2-1210 limits assumed): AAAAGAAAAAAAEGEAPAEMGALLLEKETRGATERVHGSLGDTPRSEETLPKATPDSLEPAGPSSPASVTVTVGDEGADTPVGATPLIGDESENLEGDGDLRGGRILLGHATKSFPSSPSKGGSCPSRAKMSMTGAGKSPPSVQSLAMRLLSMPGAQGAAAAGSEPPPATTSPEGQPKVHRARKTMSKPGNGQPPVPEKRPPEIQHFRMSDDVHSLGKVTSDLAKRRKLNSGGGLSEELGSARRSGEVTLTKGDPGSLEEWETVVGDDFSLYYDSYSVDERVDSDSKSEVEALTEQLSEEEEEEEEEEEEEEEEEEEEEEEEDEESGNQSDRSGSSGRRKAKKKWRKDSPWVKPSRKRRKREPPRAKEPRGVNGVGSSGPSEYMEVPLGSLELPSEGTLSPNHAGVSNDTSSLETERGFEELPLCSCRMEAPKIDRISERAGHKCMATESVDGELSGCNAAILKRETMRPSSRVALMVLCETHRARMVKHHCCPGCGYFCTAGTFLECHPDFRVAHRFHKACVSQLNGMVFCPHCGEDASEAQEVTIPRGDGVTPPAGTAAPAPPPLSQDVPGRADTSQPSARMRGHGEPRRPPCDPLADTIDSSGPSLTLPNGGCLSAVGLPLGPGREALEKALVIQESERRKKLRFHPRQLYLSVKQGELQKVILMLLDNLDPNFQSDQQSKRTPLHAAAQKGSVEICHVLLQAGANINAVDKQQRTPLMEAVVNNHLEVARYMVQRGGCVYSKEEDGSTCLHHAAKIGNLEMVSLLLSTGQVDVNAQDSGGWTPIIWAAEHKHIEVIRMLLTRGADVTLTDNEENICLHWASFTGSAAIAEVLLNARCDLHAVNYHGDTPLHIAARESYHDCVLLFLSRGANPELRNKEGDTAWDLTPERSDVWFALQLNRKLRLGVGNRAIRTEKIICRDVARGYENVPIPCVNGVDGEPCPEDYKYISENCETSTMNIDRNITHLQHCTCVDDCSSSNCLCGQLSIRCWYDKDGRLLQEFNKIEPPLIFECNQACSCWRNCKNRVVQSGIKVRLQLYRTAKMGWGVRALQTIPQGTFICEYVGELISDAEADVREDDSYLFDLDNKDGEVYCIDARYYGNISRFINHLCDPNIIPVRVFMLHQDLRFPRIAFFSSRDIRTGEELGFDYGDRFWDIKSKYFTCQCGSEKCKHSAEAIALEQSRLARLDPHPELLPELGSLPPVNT
T1 sequence (Q9H9B1 2-1298 limits assumed): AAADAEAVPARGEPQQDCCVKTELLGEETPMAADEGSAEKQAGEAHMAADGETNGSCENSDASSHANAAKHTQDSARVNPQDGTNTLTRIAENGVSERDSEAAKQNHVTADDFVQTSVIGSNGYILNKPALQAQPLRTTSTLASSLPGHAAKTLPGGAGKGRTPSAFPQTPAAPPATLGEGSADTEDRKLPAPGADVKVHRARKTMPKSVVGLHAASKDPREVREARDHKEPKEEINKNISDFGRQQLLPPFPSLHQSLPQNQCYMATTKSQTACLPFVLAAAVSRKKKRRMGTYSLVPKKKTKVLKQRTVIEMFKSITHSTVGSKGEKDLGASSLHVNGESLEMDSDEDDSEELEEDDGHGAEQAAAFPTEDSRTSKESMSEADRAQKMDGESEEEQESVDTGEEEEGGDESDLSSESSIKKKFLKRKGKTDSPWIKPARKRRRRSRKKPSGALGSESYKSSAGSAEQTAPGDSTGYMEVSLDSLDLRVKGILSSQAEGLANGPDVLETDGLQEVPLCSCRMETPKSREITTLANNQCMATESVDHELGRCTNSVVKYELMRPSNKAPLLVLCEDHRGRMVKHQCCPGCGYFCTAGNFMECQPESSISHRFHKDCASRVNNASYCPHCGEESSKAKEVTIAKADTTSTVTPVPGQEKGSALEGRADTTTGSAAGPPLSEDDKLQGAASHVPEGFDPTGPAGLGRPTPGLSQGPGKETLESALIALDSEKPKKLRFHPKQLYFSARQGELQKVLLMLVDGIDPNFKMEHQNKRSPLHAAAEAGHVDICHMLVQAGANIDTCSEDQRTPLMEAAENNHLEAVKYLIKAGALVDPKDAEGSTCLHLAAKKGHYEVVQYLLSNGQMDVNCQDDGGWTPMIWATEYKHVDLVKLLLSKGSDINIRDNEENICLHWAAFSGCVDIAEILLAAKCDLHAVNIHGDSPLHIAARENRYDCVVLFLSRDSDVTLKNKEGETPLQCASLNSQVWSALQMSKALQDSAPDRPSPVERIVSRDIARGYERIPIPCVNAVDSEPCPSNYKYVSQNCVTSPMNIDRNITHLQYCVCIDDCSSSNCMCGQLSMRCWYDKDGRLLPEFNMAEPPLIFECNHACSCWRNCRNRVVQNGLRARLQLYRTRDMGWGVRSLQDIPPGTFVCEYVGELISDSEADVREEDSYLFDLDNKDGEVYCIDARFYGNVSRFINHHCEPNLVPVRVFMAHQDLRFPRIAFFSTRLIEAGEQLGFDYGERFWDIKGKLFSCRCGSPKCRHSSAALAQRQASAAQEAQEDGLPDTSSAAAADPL

3×MBT domain of L3MBTL1 = assay: Triple SILAC pull-down, 3xMBT/3xMBTD355N ratio (cytoplasmic, nuclear and chromatin fractions of 293T cells); type: binding, human; details: for 3xMBT/D355N UNC Heavy: experiment with UNC0638 in heavy SILAC media; for 3xMBT/D355N UNC Light: experiment with UNC0638 in light SILAC media;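 for all read-outs here: proteins quantified with MaxQuant, requiring at least two unique peptides and quantification in both label directions, normalized to the mean of proteins from a digested loading control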
[1] = SILAC ratio DMSO/UNC0638 of protein pulled down with 3xMBT
[2] = SILAC ratio, pull-down 3xMBT vs 3xMBTD355N
[3] = SILAC ratio DMSO relative to UNC0638, pull-down with 3xMBT, all values in log base 2
[4] = SILAC ratio 3xMBT vs 3xMBTD355N pull-down, 293T cells, all values in log base 2

Relative to UNC0638 UNC Heavy (G9a and GLP; [1]): 0.53 log base 2 | Relative to UNC0638 UNC Light (G9a and GLP; [1]): 0.33 log base 2 | Relative to UNC0638 Average (G9a and GLP): 0.43 log base 2 | Candidate G9a/GLP target (G9a and GLP): ✓
B1: DDX46 (protein, UniProt Q7L014 2-1031, looked up)
Probable ATP-dependent RNA …: GRESRHYRKRSASRGRSGSRSRSRSPSDKRSKRGDDRRSRSRDRDRRRERSRSRDKRRSRSRDRKRLRRSRSRERDRSRERRRSRSRDRRRSRSRSRGRRSRSSSPGNKSKKTENRSRSKEKTDGGESSKEKKKDKDDKEDEKEKDAGNFDQNKLEEEMRKRKERVEKWREEQRKKAMENIGELKKEIEEMKQGKKWSLEDDDDDEDDPAEAEKEGNEMEGEELDPLDAYMEEVKEEVKKFNMRSVKGGGGNEKKSGPTVTKVVTVVTTKKAVVDSDKKKGELMENDQDAMEYSSEEEEVDLQTALTGYQTKQRKLLEPVDHGKIEYEPFRKNFYVEVPELAKMSQEEVNVFRLEMEGITVKGKGCPKPIKSWVQCGISMKILNSLKKHGYEKPTPIQTQAIPAIMSGRDLIGIAKTGSGKTIAFLLPMFRHIMDQRSLEEGEGPIAVIMTPTRELALQITKECKKFSKTLGLRVVCVYGGTGISEQIAELKRGAEIIVCTPGRMIDMLAANSGRVTNLRRVTYVVLDEADRMFDMGFEPQVMRIVDNVRPDRQTVMFSATFPRAMEALARRILSKPIEVQVGGRSVVCSDVEQQVIVIEEEKKFLKLLELLGHYQESGSVIIFVDKQEHADGLLKDLMRASYPCMSLHGGIDQYDRDSIINDFKNGTCKLLVATSVAARGLDVKHLILVVNYSCPNHYEDYVHRAGRTGRAGNKGYAYTFITEDQARYAGDIIKALELSGTAVPPDLEKLWSDFKDQQKAEGKIIKKSSGFSGKGFKFDETEQALANERKKLQKAALGLQDSDDEDAAVDIDEQIESMFNSKKRVKDMAAPGTSSVPAPTAGNAEKLEIAKRLALRINAQKNLGIESQDVMQQATNAILRGGTILAPTVSAKTIAEQLAEKINAKLNYVPLEKQEEERQDGGQNESFKRYEEELEINDFPQTARWKVTSKEALQRISEYSEAAITIRGTYFPPGKEPKEGERKIYLAIESANELAVQKAKAEITRLIKEELIRLQNSYQPTNKGRYKVL
3xMBT/D355N UNC Heavy (3×MBT domain of L3MBTL1; [2]): 2.10 log base 2 | 3xMBT/D355N UNC Light (3×MBT domain of L3MBTL1; [2]): 2.67 log base 2

Relative to UNC0638 UNC Heavy (G9a and GLP; [1]): 0.36 log base 2 | Relative to UNC0638 UNC Light (G9a and GLP; [1]): 0.41 log base 2 | Relative to UNC0638 Average (G9a and GLP): 0.38 log base 2 | Candidate G9a/GLP target (G9a and GLP): ✓
B4: HNRNPL (protein, UniProt P14866 1-589, looked up)
Heterogeneous nuclear …: MSRRLLPRAEKRRRRLEQRQQPDEQRRRSGAMVKMAAAGGGGGGGRYYGGGSEGGRAPKRLKTDNAGDQHGGGGGGGGGAGAAGGGGGGENYDDPHKTPASPVVHIRGLIDGVVEADLVEALQEFGPISYVVVMPKKRQALVEFEDVLGACNAVNYAADNQIYIAGHPAFVNYSTSQKISRPGDSDDSRSVNSVLLFTILNPIYSITTDVLYTICNPCGPVQRIVIFRKNGVQAMVEFDSVQSAQRAKASLNGADIYSGCCTLKIEYAKPTRLNVFKNDQDTWDYTNPNLSGQGDPGSNPNKRQRQPPLLGDHPAEYGGPHGGYHSHYHDEGYGPPPPHYEGRRMGPPVGGHRRGPSRYGPQYGHPPPPPPPPEYGPHADSPVLMVYGLDQSKMNCDRVFNVFCLYGNVEKVKFMKSKPGAAMVEMADGYAVDRAITHLNNNFMFGQKLNVCVSKQPAIMPGQSYGLEDGSCSYKDFSESRNNRFSTPEQAAKNRIQHPSNVLHFFNAPLEVTEENFFEICDELGVKRPSSVKVFSGKSERSSSGLLEWESKSDALETLGFLNHYQMKNPNGPYPYTLKLCFSTAQHAS
3xMBT/D355N UNC Heavy (3×MBT domain of L3MBTL1; [2]): 1.15 log base 2 | 3xMBT/D355N UNC Light (3×MBT domain of L3MBTL1; [2]): 1.40 log base 2

More lines, now with the values behind:

B2: CHEK1 (protein, UniProt O14757 1-476, looked up)
Serine/threonine-protein …: MAVPFVEDWDLVQTLGEGAYGEVQLAVNRVTEEAVAVKIVDMKRAVDCPENIKKEICINKMLNHENVVKFYGHRREGNIQYLFLEYCSGGELFDRIEPDIGMPEPDAQRFFHQLMAGVVYLHGIGITHRDIKPENLLLDERDNLKISDFGLATVFRYNNRERLLNKMCGTLPYVAPELLKRREFHAEPVDVWSCGIVLTAMLAGELPWDQPSDSCQEYSDWKEKKTYLNPWKKIDSAPLALLHKILVENPSARITIPDIKKDRWYNKPLKKGAKRPRVTSGGVSESPSGFSKHIQSNLDFSPVNSASSEENVKYSSSQPEPRTGLSLWDTSPSYIDKLVQGISFSQPTCPDHMLLNSQLLGTPGSSQNPWQRLVKRMTRFFTKLDADKSYQCLKETCEKLGYQWKKSCMNQVTISTTDRRNNKLIFKVNLLEMDDKILVDFRLSKGDGLEFKRHFLKIKGKLIDIVSSQKIWLPAT
Relative to UNC0638 UNC Light (G9a and GLP; [3]): −0.99 log base 2 | Relative to UNC0638 Average (G9a and GLP; all values in log base 2): −0.99 log base 2 | 3xMBT/D355N UNC Heavy (3×MBT domain of L3MBTL1; [4]): 0.09 log base 2 | 3xMBT/D355N UNC Light (3×MBT domain of L3MBTL1; [4]): 0.46 log base 2

B3: CSRP2 (protein, UniProt Q16527 1-193, looked up)
Cysteine and glycine-rich …: MPVWGGGNKCGACGRTVYHAEEVQCDGRSFHRCCFLCMVCRKNLDSTTVAIHDEEIYCKSCYGKKYGPKGYGYGQGAGTLNMDRGERLGIKPESVQPHRPTTNPNTSKFAQKYGGAEKCSRCGDSVYAAEKIIGAGKPWHKNCFRCAKCGKSLESTTLTEKEGEIYCKGCYAKNFGPKGFGYGQGAGALVHAQ
Relative to UNC0638 UNC Heavy (G9a and GLP; [3]): −0.58 log base 2 | Relative to UNC0638 UNC Light (G9a and GLP; [3]): −0.49 log base 2 | Relative to UNC0638 Average (G9a and GLP; all values in log base 2): −0.54 log base 2 | 3xMBT/D355N UNC Heavy (3×MBT domain of L3MBTL1; [4]): 1.27 log base 2 | 3xMBT/D355N UNC Light (3×MBT domain of L3MBTL1; [4]): 1.96 log base 2
